The assay deals with T1, ZAP-70 tandem SH2 domain R192A (1-256).
T1 construct: numbers count on: PDB 2OQ1 (holo-tSH2 structure); also called tSH2 R192A; C-SH2 domain mutant; source: E. coli BL21(DE3), purified (Ni-NTA, Q column, gel filtration)
Description: ITC; Malvern PEAQ-ITC, 20 °C; C-SH2 mutant tSH2 (R192A, printed R190A in the methods) in 20 mM Hepes pH 8.2, 150 mM NaCl, 5 mM β-mercaptoethanol; titrated with 300 μM peptide; one-site binding model; constant printed under the column Kd2. Conditions: both partners purified. For orientation: Isothermal titration calorimetry measures the heat released or taken up as one component is titrated into another.

Where no end group is shown, it is not given here. [ ]: non-standard residue; d: D form. pY = N[C@@H](Cc1ccc(OP(=O)(O)O)cc1)C(=O)O

B1: doubly-phosphorylated ITAM-ζ3 peptide (peptide)
chain: DGL[pY]QGLSTATKDT[pY]DALH
Broadly, the Kd is a measure of binding affinity in units of concentration. In the case of B1, the Kd was found to be 12 ± 0.9 µM.

These data come from PMC9486129, “An evolutionary divergent thermodynamic brake in ZAP-70 fine-tunes the kinetic proofreading in T cells” (The Journal of Biological Chemistry, 2022).
